The results in this text go back to patent publication US6362326B1, “11 cby genomic sequence” (SmithKline Beecham Corporation, priority 1998, dated 2002).

In this experiment the target is 11cby polypeptide of SEQ ID NO: 2 (Homo sapiens, UniProt Q99705). As to the kind of experiment: binding of 11cby polypeptide to melanin-concentrating hormone. The following applies: qualitative statement, method or value not given.
Sequence of 11cby polypeptide of SEQ ID NO: 2 (Q99705 whole entry): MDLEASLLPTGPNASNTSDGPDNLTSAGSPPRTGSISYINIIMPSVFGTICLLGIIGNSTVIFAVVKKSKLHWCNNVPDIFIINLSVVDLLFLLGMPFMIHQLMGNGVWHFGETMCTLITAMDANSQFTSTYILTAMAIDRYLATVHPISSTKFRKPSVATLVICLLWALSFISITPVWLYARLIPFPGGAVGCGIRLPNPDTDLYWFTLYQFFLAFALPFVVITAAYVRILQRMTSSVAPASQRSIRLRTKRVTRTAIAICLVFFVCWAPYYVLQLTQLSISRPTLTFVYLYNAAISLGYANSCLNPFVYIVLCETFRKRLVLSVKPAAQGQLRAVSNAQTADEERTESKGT

For “H-Asp-Phe-Asp-Met-Leu-Arg-Cys-Met-Leu-Gly-Arg-Val-Tyr-Arg-Pro-Cys-Trp-Gln-Val-OH [MCH]”, the “binding to 11cby polypeptide (7-transmembrane receptor)” value is listed as “bind”.
